Experimental data: the nanobody polyreactivity screen of Harvey et al. (2022)

Assay: yeast display, Sf9 membrane polyspecificity reagent, FACS + sequencing; frameworks hold sequencing errors
How it was run: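 Nanobodies came from a synthetic yeast display library in Saccharomyces cerevisiae BJ5465, induced with galactose for 36–48 hours and stained for 1 hour at 4 °C with 10% biotinylated, detergent-solubilized Sf9 membrane reagent. Cells were enriched on streptavidin microbeads and then FACS-sorted, with low and high (top ~1%) gates set on anti-HA fluorescence for expression and streptavidin fluorescence for reagent binding. Each polyreactivity label reflects the gate a clone came from. Genes were amplified by colony PCR, sequenced by MiSeq 2 × 250 and filtered by CDR length.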

Q: With “QVQLVESGGGLVQAGGSLRLSCAASGSIVYVYAMGWYRQAPGKEREVVAAINTSGGSTYADSVKGRFTISRDNAKNTVYLQMNSLKPEDTAVYYCAADGYYEYTWGEYDSWGQGTQVTVSS” as the sequence, how does the “polyreactivity (PSR sort gate)” value read?
A: low polyreactivity

Q: For “QVQLVESGGGLVQAGGSLRLSCAASGSIYDFYAMGWYRQAPGKERELVAAISWSGTSTYYADSVKGRFTISRDNAKNTVYLQMNSLKPEDTAVYYCAVVAGQSYFNRYDYWGQGTQVTVSS”, which “polyreactivity (PSR sort gate)” value is on record?
A: low polyreactivity

Q: For “QVQLVESGGGLVQAGGSLRLSCAASGSIYFTNAMGWYRQAPGKERELVAAIRWRGDRTYYADSVKGRFTISRDNGKNTVYLQMNSLIPEDTAVYYCAVAPSYKITEDSWGQGTQVTVSS”, which “polyreactivity (PSR sort gate)” value is on record?
A: low polyreactivity

Q: For “QVQLVESGGGLVQAGGSLRLSCAASGSIYGPYAMGLYRQAPGKERELVAAISSGGSTYYADSVKGRFTISRDNAKNTVYLQMNSLKPEDTAVYYCNKYWGFSYLPYDSWGQGTQVTVSS”, which “polyreactivity (PSR sort gate)” value is on record?
A: low polyreactivity

Q: Which “polyreactivity (PSR sort gate)” value does the source give for “QVQLVESGGGLVQAGGSLRLSCAASGSIYGTNAMGWYRQAPGKERELVSAIDGGSTTYYADSVKGRFTISRDNAKNTVYLQMNSLKPEDTAVYYCAADGTRYLNYEGYAGYEYWGQGTQVTVSS” here?
A: low polyreactivity

Q: With “QVQLVESGGGLVQAGGSLRLSCAASGSIYGYVKGWYRPAPGKERELVAAIRRSGGSTYYADSVKGRFTISRDNAKNTVYLQMNSLKPEDTAVYYCAARTYGTDRYYYWGQGTQVTVSS” as the sequence, how does the “polyreactivity (PSR sort gate)” value read?
A: high polyreactivity

Q: With “QVQLVESGGGLVQAGGSLRLSCAASGSIYHVYALGWYRQAPGKERELVATISSGGSTYYADSVKGRFTISRDNEKNTVYLQMNSLKPEDTAVYYCNADWFLYGGWYGYGYWGQGTQVTVSS” as the sequence, how does the “polyreactivity (PSR sort gate)” value read?
A: low polyreactivity

Q: For “QVQLVESGGGLVQAGGSLRLSCAASGSIYINARGWYRQAPGKERELVAAISSGGSTNYADSVKGRFTISRDNAKNTVYLQMNSLKPEDTAVFYCATRRYRGPWYRNAYDYWGQGTQVTVSS”, which “polyreactivity (PSR sort gate)” value is on record?
A: low polyreactivity

Q: Which “polyreactivity (PSR sort gate)” value does the source give for “QVQLVESGGGLVQAGGSLRLSCAASGSIYLIYAMGWYRQAPGKERELDAAISRSGGHTYYADSVKGRFTISRDNAKITVYLQMNSLKPEDTAVYYCAAKSYSSGTYGYNYWGQGTQVTVSS” here?
A: high polyreactivity

Q: Which “polyreactivity (PSR sort gate)” value does the source give for “QVQLVESGGGLVQAGGSLRLSCAASGSIYLKYAMGWYRQAPGKERELVAAISSRGGSTYYADSVKGRFTISRDNAKNTVYLQMNSLKPEDTAVYYCAAKRWPGTDGYWGQGTQVTVSS” here?
A: high polyreactivity

Q: Which “polyreactivity (PSR sort gate)” value does the source give for “QVQLVESGGGLVQAGGSLRLSCAASGSIYLYAMGWYIQAPGKERELVADISFSDGSTYYADSVKGRFTISRDNAKNTVYLQMNSLKPEDTAVYYCAAGVWHHASWDFLEYYYWGQGTQVTVSS” here?
A: low polyreactivity

Q: With “QVQLVESGGGLVQAGGSLRLSCAASGSIYQYNAMGWYRQAPGKERELVAAISSRGGITYYADSVKGRFTISRDNAKNTVYLQMNSLKPEDTAVYYCAAEGYYSEVRWYEYWGQGTQVTVSS” as the sequence, how does the “polyreactivity (PSR sort gate)” value read?
A: high polyreactivity

Q: With “QVQLVESGGGLVQAGGSLRLSCAASGSIYSRNAMGWYRQAPGKERELVAGISTGGSTNYADSVKGRFTISRDNAKNTVYLQMNSLKPEDTAVYYCAAPLAYEGDYWGQGSQVTVSS” as the sequence, how does the “polyreactivity (PSR sort gate)” value read?
A: low polyreactivity

Q: With “QVQLVESGGGLVQAGGSLRLSCAASGSIYTRYPMGWYRQAPGKERELVAAISINGGSTYYADSVKGRFTISRDNAKNTVYLHMNSLKPEDTAVYYCARHYYRWNNFLYLSGYYWGQGSQVTVSS” as the sequence, how does the “polyreactivity (PSR sort gate)” value read?
A: high polyreactivity

Q: Which “polyreactivity (PSR sort gate)” value does the source give for “QVQLVESGGGLVQAGGSLRLSCAASGSIYTYYAMGWYRQAPGKEMELVADIRWSGGSTYYADSVKGRFTISRDNAKNTVYLQMNSLKPEDTAVYYCNARYYSYCPIYNFDYWGQGTQVTVSS” here?
A: low polyreactivity

Q: Which “polyreactivity (PSR sort gate)” value does the source give for “QVQLVESGGGLVQAGGSLRLSCAASGSIYTYYAMGWYRQAPGKERELVAAINSGGRTNYADSVKGRFTISRDNAKNTVYLQMNSLKPEDTAVYYCAADGSVSYYTYYYWGQGTQVTVSS” here?
A: low polyreactivity

Q: For “QVQLVESGGGLVQAGGSLRLSCAASGSIYYNAMGWYRQAPGKERELVASISTGDSTDYADSVKGRFTISRDNAKNTFYLQMNSLKPEDTAVYYCAADTRLGYWDDYWGQGTQVTVSS”, which “polyreactivity (PSR sort gate)” value is on record?
A: low polyreactivity

Q: For “QVQLVESGGGLVQAGGSLRLSCAASGSIYYRNGMGWYRQAPGKEREFVATITNNGGNTYYADSVKGRFTISRDNAKNTVYLQLNSLKPDDTAVYYCAAGPTWSWGYYYWGQGTQVTVSS”, which “polyreactivity (PSR sort gate)” value is on record?
A: high polyreactivity

Q: Which “polyreactivity (PSR sort gate)” value does the source give for “QVQLVESGGGLVQAGGSLRLSCAASGSKFWGYAMGWYRKAAGKERELVAAITDSGGRTYYADSVKGRFTISRDNEKNTVYLQMNSLKPEDTAVYYCAADYYSQYYYYAVPDRDYWGQGTQVTVSS” here?
A: low polyreactivity

Q: With “QVQLVESGGGLVQAGGSLRLSCAASGSLFYPYAMGWYRQAPGKERELVAAIDLSGGSTYYADAVKGRFTISRDNAKNTVYLQMNSLKPEDTAVYYCAADYGYTYAYDYWGQGTQVTVSS” as the sequence, how does the “polyreactivity (PSR sort gate)” value read?
A: low polyreactivity

Q: For “QVQLVESGGGLVQAGGSLRLSCAASGSLFYYYPMGWYRQAPGKERELVATINISDRSTYYADSVKGRFTISRDYAKNTVYLQMNSLKPEDTAVYDCAAYYYFQDYDYWGQGTQVTVSS”, which “polyreactivity (PSR sort gate)” value is on record?
A: low polyreactivity

Q: Which “polyreactivity (PSR sort gate)” value does the source give for “QVQLVESGGGLVQAGGSLRLSCAASGSLSYTYGMGCYRQAPGKERELVAAISTSGGNTYYADSVKGRFTISRDNAKNSVYLQMNSLKPEDTAVYYCSAYYGRGSIKRYYYWGQGTQVTVSS” here?
A: high polyreactivity
